Laboratory results published in patent publication US20180030144A1 (INNATE PHARMA, published 2018).
Numbering of substitutions follows the chain as printed. In names and notes the source's numbering stands.

T1: human CD73 mutant 16 (human, UniProt P21589 27-549)
T1 construct: Transfected in HEK293T cells
T1 chain: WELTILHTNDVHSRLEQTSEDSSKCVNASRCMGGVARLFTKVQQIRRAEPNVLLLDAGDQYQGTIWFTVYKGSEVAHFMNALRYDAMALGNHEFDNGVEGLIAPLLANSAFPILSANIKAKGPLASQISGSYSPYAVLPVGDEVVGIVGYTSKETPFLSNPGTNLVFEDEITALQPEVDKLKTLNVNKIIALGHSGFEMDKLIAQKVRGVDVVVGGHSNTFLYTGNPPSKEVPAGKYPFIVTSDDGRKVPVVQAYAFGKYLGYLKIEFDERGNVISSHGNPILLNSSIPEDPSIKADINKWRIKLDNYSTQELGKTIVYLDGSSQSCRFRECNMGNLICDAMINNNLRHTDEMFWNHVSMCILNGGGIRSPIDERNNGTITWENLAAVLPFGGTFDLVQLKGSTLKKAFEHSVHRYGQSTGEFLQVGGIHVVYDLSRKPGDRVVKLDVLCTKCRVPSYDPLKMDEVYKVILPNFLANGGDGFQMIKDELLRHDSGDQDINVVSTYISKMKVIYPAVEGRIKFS

T2: human CD73 mutant 18 (human, UniProt P21589 27-549)
T2 construct: Transfected in HEK293T cells
T2 chain: T1 chain with A81S, R83A

T3: human CD73 mutant 19 (human, UniProt P21589 27-549)
T3 construct: Transfected in HEK293T cells
T3 chain: T1 chain with S126A, S129A

T4: human CD73 mutant 21 (human, UniProt P21589 27-549)
T4 construct: Transfected in HEK293T cells
T4 chain: T1 chain with K71A, E99A, A110K, Q127A, S131L, S133L, A136K

T5: human CD73 mutant 22 (human, UniProt P21589 27-549)
T5 construct: Transfected in HEK293T cells
T5 chain: T1 chain with K71A, E99A, A110K, S131L, S133L, A136K, K304A

B1: antibody 11E1 (antibody, human IgG1, V domains shown)
VH: EIQLQQSGPELVKPGASVKVSCKASGYAFTSYNMYWVKQSHGKSLEWIGYIDPYNGGTSYNQKFKGKATLTVDKSSSTAYMHLNSLTSEDSAVYYCARGYGNYKAWFAYWGQGTLVTVSA
VL: DAVMTQTPKFLLVSAGDRVTITCKASQSVTNDVAWYQQKPGQSPKLLIYYASNRYTGVPDRFTGSGYGTDFTFTISTVQAEDLAVYFCQQDYSSLTFGAGTKLELK
notes: Produced as chimeric human IgG1 with heavy chain N297Q (Kabat EU numbering); also called 1E11
B2: antibody 6E1 (antibody, human IgG1, V domains shown)
VH: B1 VH with I2F, S44R, T58S, S85N, G101N
VL: B1 VL with D1S, A2I, V78M
notes: Produced as chimeric human IgG1 with heavy chain N297Q (Kabat EU numbering)
B3: antibody 3C12 (antibody, human IgG1, V domains shown)
VH: B1 VH with E1Q, T30A, Y35N, E46D, T58S, Q62L, K63T, S77T
VL: DVVMTQTPKFLLVSAGDRVTITCKASQSVSNDVAWYQQKPGQSPKLLIYYASTRYTGVPDRFTGSGYGTDFTFTISTVQAEDLAVYFCQQDYSSLTFGAGTKLELKR
notes: Produced as chimeric human IgG1 with heavy chain N297Q (Kabat EU numbering); RTVAAP)

Target: T1, human CD73 mutant 16
Assay: flow cytometry, HEK293T transfectants

binding result	Binder
no binding	B1
no binding	B2
no binding	B3

Target: T2, human CD73 mutant 18
Assay: flow cytometry, HEK293T transfectants

binding result	Binder
no binding	B1
no binding	B2
no binding	B3

Target: T3, human CD73 mutant 19
Assay: flow cytometry, HEK293T transfectants

binding result	Binder
no binding	B1
no binding	B2
no binding	B3

Target: T4, human CD73 mutant 21
Assay: flow cytometry, HEK293T transfectants

binding result	Binder
no binding	B1
no binding	B2
no binding	B3

Target: T5, human CD73 mutant 22
Assay: flow cytometry, HEK293T transfectants

binding result	Binder
no binding	B1
no binding	B2
no binding	B3
